Laboratory results published in PMC4822050, “Hemi-methylated DNA opens a closed conformation of UHRF1 to facilitate its histone recognition” (Nature Communications, 2016).

Key:
[1] = biological target: T1, SRA-Spacer (human) (UniProt Q96T88); experiment: FP; conditions: DNA length series; 5-methyl-dC (hemi-methylated CpG); ITC: 10 mM HEPES pH 8.0, 100 mM NaCl, 18 C; EMSA: 20 mM HEPES pH 7.5, 100 mM NaCl, 8% glycerol, 1 mM DTT, on ice; pull-down: 20 mM HEPES-NaOH pH 8.0, 100 mM …
T1 sequence: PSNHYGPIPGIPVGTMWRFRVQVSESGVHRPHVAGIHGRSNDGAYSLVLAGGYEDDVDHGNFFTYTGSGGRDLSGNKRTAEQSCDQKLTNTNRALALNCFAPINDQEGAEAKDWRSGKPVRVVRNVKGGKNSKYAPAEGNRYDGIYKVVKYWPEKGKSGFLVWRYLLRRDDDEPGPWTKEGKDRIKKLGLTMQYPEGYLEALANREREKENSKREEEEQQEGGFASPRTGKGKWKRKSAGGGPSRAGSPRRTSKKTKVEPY

[2] = biological target: T2, SRA (human) (UniProt Q96T88); experiment: FP; conditions: DNA length series; 5-methyl-dC (hemi-methylated CpG); ITC: 10 mM HEPES pH 8.0, 100 mM NaCl, 18 C; EMSA: 20 mM HEPES pH 7.5, 100 mM NaCl, 8% glycerol, 1 mM DTT, on ice; pull-down: 20 mM HEPES-NaOH pH 8.0, 100 mM …
T2 sequence: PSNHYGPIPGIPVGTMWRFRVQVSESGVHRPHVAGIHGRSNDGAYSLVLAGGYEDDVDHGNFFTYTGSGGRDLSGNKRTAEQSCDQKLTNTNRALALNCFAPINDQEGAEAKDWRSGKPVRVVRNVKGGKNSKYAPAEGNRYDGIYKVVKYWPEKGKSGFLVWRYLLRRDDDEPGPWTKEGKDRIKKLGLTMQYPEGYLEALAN

[3] = biological target: PHD-SRA of UHRF1 (human); experiment: ITC; 0.05 mM protein in the cell, 0.5 mM protein or peptide in the syringe, iTC200, 18 °C, 10 mM HEPES pH 8.0, 100 mM NaCl
[4] = biological target: UHRF1 TTD, 134-285 (UniProt Q96T88); experiment: ITC; conditions: reference: unmodified Spacer642–664 peptide; sites S651

Sequence of UHRF1 Spacer, 642-664 (Q96T88 134-285, change not shown): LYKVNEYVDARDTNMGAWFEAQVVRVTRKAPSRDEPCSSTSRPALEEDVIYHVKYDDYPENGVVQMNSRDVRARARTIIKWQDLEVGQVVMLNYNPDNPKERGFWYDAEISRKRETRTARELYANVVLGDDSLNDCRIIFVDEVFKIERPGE

Substance | Kd [1] [µM] | Kd [2] [µM] | fold decrease in binding affinity against the PHD alone [3] [fold] | binding against the reference [4]
FAM-16bp-HM-DNA | 0.39 | 29.4 | – | –
FAM-20bp-HM-DNA | 0.4 | 9.59 | – | –
H3 peptide (1–17) (from UniProt P68431 2-18) | – | – | 8 | –
UHRF1 Spacer, 642-664 (from UniProt Q96T88) pS651 Spacer642–664 peptide | – | – | – | weaker
